Experimental data reported in patent publication US10464976B2, “Amyloid β(1-42) oligomers, derivatives thereof and antibodies thereto, methods of preparation thereof and use thereof” (AbbVie Deutschland GmbH & Co. KG, priority 2003, dated 2019).
Read-outs that look alike come from different tables or passages of the source. Where no end group is shown, it is not given here.

What was measured:
[1] = Detection of Aβ(1-42) oligomers B in rat brain homogenates after icv administration; conditions: Western blot, after 2 hours
[2] = rat, in vivo; for Aβ(1-42) detected in brain extract: 10 nmol
[3] = Stability of Aβ(1-42) oligomers B in physiological buffers (SDS PAGE); assay type: physicochemical
Procedure: The Aβ(1-42) oligomers B obtained according to example 6b are tested for stability in PBS buffer under the following conditions.
5 mg/ml are diluted with PBS in 2× dilution steps down to 0.08 mg/ml. All solutions obtained are incubated at room temperature for 24 hours. This was followed by analyzing the band pattern in an SDS PAGE in comparison with a frozen control preparation.
The Aβ(1-42) oligomers B obtained according to example 6b are diluted to 0.5 mg/ml with PBS buffer and incubated at room temperature or at 37° C. for 24 h or 96 h.
Subsequently, the band pattern was analyzed in an SDS PAGE.

[4] = rat
murine cortical neurons = experiment: Neurotoxic action on murine cortical neurons (LDH release); assay type: cell-based; conditions: 24 h, various final concentrations, n=12
Procedure: Murine cortical neurons are prepared and cultured as a mixed culture with glia cells following the literature (Choi et al. (1987) J. Neurosci. 7, 357-368). The cortices of embryos on days 14-15 of development are mechanically removed from the meninges and lower brain regions. The cells are separated from one another by incubation in a 0.05% strength trypsin solution at 37° C. for 5-7 minutes and subsequently pipetting said solution several times through a pasteur pipette with reduced opening. After determining the number of cells, 430 000 cells are seeded in 0.5 ml of maintenance medium (minimum essential medium containing 0.8 mM glutamine, 18 mM glucose, 23 mM NaHCO3 and 10% of horse serum) per 2 cm^2 on cell culture material coated with poly-L-ornithine and laminine. Cultivation and later incubations of the cells are carried out in a humidified cell culture incubator at 37° C., 5% CO2. […] The cell culture supernatants are removed after 24 h, the remaining cells are destroyed by incubation in distilled water for 20 minutes and the activity of the enzyme lactate dehydrogenase (LDH) is determined enzymatically in both solutions. For evaluation, the ratio of the LDH activity of the cell culture supernatants to the sum of the LDH activities of supernatant and remaining cells is determined and the average of the quadruple determinations is formed. […]

[5] = test system: rat primary hippocampal neurons; experiment: Binding to rat primary hippocampal neurons (immunofluorescence); assay type: cell-based; conditions: 200 nM, 37° C., 15 minutes, detection with 6E10 and Cy3 second antibody
Procedure: The binding of rat Aβ(1-42) oligomers B of example 5b to rat primary hippocampal neurons was studied. The hippocampal neurons were cultured in neurobasal medium with B27 supplement on poly-L-lysine-coated cover slips and used on day 14 of the culture. The oligomers were bound to the cell membrane of the neurons by adding 200 nM (total monomeric Aβ concentration) oligomers to fresh culture medium and incubating at 37° C. for 15 minutes. After removing the Aβ-containing medium, two washing steps with medium were carried out and the cells were then fixed in 3.7% formaldehyde. After further washing of the cells, unspecific binding sites were blocked with 10% normal donkey serum in PBS buffer at room temperature for 90 min. 6E10 (from mouse) was applied as the first antibody in a 1:2000 dilution at room temperature for 2 h. The cells were washed again and incubated with the second antibody (from donkey) which is directed against mouse and which is coupled to the fluorescent dye Cy3, at room temperature for 2 h. After the cells had been washed again, the cover slips containing the neurons were fixed to a slide with embedding medium. The hippocampal neurons with bound Aβ oligomers were depicted in a fluorescent microscope. The control used was a mixture in which the first antibody 6E10 had been omitted.

Substance	oligomeric structure after in vivo administration (38/48 kDa bands) [1]	average biological half life (brain) [2]	Aβ(1-42) detected in brain extract ([2]; 0.25 h)	Aβ(1-42) detected in brain extract ([2]; 2 h)	band pattern in SDS PAGE ([3]; 0.5 mg/ml in PBS, room temperature or 37° C., 24 h or 96 h)	band pattern in SDS PAGE versus frozen control ([3]; PBS, 5 mg/ml down to 0.08 mg/ml, room temperature, 24 hours)	biological half life in the plasma [4] [hours]	neurotoxicity (neuronal death, LDH) (murine cortical neurons)	binding to the cell surface of the neurons [5]
Aβ(1-42) oligomers B: oligomers of human amyloid β(1-42) protein with molecular weights of 38 kDa and 48 kDa in SDS PAGE (examples 5a, 6b)	oligomeric structure is still retained	about 105 min	about 0.4 nmol/g	approx. 0.2 nmol/g	identical in all samples	identical in all samples	≥ 8	distinct toxic action	
rat Aβ(1-42) oligomers B: oligomers of rat amyloid β(1-42) protein with molecular weights of 38 kDa and 48 kDa (example 5b) (DAEFGHDSGFEVRHQKLVFFAEDVGSNKGAIIGLMVGGVVIA; also: oligomers of 38 kDa and 48 kDa)									bind to the cell surface of the neurons in a dotted manner
